Test results: patent US20180118846A1

How the values were obtained:
Test in all cases: cell-based or functional assay
CEACAM5 (human) = CEACAM5 (human) (UniProt P06731)
CEACAM6 (human) = CEACAM6 (human) (UniProt P40199)
CD19 (human) = CD19 (human) (UniProt P15391)
CD20 (human) = CD20 (human) (UniProt P11836)
CD22 (human) = CD22 (human) (UniProt P20273)
HLA-DR (human) = molecular target: HLA-DR (human)

Chain of CD20 (human) (P11836 whole entry): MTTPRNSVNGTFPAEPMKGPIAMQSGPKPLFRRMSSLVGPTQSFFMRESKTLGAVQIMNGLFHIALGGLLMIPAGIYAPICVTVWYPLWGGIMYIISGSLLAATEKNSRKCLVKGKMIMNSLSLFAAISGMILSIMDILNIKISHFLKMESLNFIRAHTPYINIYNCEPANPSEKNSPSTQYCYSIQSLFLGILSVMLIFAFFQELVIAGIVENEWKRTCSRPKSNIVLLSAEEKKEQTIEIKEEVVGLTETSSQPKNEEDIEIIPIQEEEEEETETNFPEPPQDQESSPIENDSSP
Chain of CD19 (human) (P15391 20-556): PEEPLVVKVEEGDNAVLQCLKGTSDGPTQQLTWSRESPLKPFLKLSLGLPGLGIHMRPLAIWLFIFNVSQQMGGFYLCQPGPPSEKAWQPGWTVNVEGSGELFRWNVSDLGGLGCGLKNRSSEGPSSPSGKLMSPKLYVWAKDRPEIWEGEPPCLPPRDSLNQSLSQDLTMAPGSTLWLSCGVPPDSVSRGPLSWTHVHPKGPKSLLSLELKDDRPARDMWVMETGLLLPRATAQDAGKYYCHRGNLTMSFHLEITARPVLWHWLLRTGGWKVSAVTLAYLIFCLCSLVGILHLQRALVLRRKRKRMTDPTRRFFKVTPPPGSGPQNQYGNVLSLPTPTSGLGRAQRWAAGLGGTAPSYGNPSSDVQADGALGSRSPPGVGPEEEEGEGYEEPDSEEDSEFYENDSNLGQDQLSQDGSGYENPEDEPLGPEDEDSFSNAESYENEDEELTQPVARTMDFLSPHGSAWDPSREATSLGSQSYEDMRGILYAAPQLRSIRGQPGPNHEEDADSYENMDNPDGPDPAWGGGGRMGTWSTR
Chain of CEACAM6 (human) (P40199 35-320): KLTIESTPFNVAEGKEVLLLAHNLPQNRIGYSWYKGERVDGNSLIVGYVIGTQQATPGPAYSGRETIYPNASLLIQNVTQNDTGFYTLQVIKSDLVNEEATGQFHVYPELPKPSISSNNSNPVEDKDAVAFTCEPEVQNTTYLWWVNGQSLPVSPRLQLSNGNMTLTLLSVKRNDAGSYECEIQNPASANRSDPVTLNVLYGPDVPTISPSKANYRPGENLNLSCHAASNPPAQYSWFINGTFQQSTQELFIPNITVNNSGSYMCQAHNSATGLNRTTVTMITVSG
Chain of CEACAM5 (human) (P06731 35-702): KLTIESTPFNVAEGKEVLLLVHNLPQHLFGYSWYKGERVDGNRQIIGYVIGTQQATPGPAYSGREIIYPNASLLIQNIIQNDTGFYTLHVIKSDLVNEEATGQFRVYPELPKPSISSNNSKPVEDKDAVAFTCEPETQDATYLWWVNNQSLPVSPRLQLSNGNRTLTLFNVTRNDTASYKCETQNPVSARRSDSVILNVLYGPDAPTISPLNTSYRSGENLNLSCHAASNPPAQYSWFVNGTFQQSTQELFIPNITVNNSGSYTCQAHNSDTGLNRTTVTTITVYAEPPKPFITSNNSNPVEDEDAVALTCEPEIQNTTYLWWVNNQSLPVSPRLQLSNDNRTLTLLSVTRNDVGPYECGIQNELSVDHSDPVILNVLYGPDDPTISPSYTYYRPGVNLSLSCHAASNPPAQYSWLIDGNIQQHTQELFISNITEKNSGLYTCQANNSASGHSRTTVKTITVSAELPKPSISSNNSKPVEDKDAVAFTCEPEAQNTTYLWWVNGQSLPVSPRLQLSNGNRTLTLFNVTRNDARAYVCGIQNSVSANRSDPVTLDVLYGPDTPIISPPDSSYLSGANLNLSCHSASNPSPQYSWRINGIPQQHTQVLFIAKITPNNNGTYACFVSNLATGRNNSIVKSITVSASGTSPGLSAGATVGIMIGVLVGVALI

## (14)-3s, anti-CEACAM5 x anti-CD3 DNL complex (two CH1-DDD2-Fab-hMN-14 + one scFv-AD2-Okt3) (bispecific antibody)
CEACAM5 (human)
  T-cell mediated lysis of LS-174T, IC50: 2 pM

## (15)-3s, anti-CEACAM6 x anti-CD3 DNL complex (two CH1-DDD2-Fab-hMN-15 + one scFv-AD2-Okt3) (bispecific antibody)
CEACAM6 (human)
  T-cell mediated lysis of NCI-N87, IC50: 3 pM

## (19)-3s, anti-CD19 x anti-CD3 DNL complex (two CH1-DDD2-Fab-hA19 + one scFv-AD2-Okt3) (bispecific antibody)
CD19 (human)
  % of cell population in T cell-B cell association (CD3+CD20+) at 0.1 µg/mL (19)-3s: > 25%
  T-cell mediated killing of Daudi, LysisMax: 60%
  T-cell mediated killing of Nalm6, LysisMax: 93%
  T-cell mediated killing of Namalwa, LysisMax: 60%
  T-cell mediated killing of Raji, IC50: 3 nM
  T-cell mediated killing of Raji, LysisMax: 41%
  T-cell mediated killing of Ramos, IC50: 0.17 pM
  T-cell mediated killing of Ramos, LysisMax: 79%
  association of Daudi cells with T cells after (19)-3s: > 90%
  co-binding of Daudi and T cells, % CD20+/CD7+ flow events after (19)-3s: 45.5%
  concentration at saturation of (19)-3s-mediated cell-to-cell association (Jurkat/Daudi): 0.037 to 0.111 µg/mL
  ex vivo re-directed T-cell killing of Daudi, IC50: 1 pM
  ex vivo re-directed T-cell killing of Jeko-1, IC50: 3000 pM
  ex vivo re-directed T-cell killing of Nalm-6, IC50: 6 pM
  ex vivo re-directed T-cell killing of Namalwa, IC50: 63 pM
  ex vivo re-directed T-cell killing of Raji, IC50: > 3000 pM
  ex vivo re-directed T-cell killing of Ramos, IC50: 2 pM

## (20)-3s, anti-CD20 x anti-CD3 DNL complex (two CH1-DDD2-Fab-hA20 + one scFv-AD2-Okt3) (bispecific antibody)
CD20 (human)
  T-cell mediated killing of Daudi, IC50: < 0.3 pM
  T-cell mediated killing of Daudi, LysisMax: 90%
  T-cell mediated killing of Jeko, LysisMax: 90%
  T-cell mediated killing of Namalwa, LysisMax: 53%
  ex vivo re-directed T-cell killing of Daudi, IC50: 0.3 pM
  ex vivo re-directed T-cell killing of Jeko-1, IC50: 1 pM
  ex vivo re-directed T-cell killing of Namalwa, IC50: 30 pM
  ex vivo re-directed T-cell killing of Ramos, IC50: 0.4 pM

## (22)-3s, anti-CD22 x anti-CD3 DNL complex (two CH1-DDD2-Fab-hLL2 + one scFv-AD2-Okt3) (bispecific antibody)
CD22 (human)
  T-cell mediated lysis of Daudi, IC50: 5 pM
  T-cell mediated lysis of Daudi, LysisMax: 60%
  ex vivo re-directed T-cell killing of Daudi, IC50: 6 pM
  ex vivo re-directed T-cell killing of Namalwa, IC50: > 3000 pM

## (C2)-3s, anti-HLA-DR x anti-CD3 DNL complex (two CH1-DDD2-Fab-hL243 + one scFv-AD2-Okt3) (bispecific antibody)
HLA-DR (human)
  T-cell mediated killing of Jeko-1, LysisMax: 88%
  ex vivo re-directed T-cell killing of Jeko-1, IC50: 20 pM
  ex vivo re-directed T-cell killing of Ramos, IC50: 2 pM
